Results taken from patent US20230348616A1 (MIE UNIVERSITY, published 2023).
Numbering of substitutions follows the chain as printed.

B1: NYA-2048 (scFv)
scFv: GQVQLVESGGGVVQPGRSLRLSCAASGFSIRSYDMHWVRQAPGKGLEWVATISYDGSQKYYADSVKGRFTISRDNSKNTLYLQMSSLRAEDTAVYHCARGSSGHYEAFDIWGQGTLVTVSSGGGGSGGGGSGGGGSQSVLTQPPSASGTPGQRVTISCSGSSSNIGNWYVSWYQQLPGTAPKLLIYDNNKRPSGVPDRFSGSKSGTSASLAISGLQSEDEADYYCGTWDSSLSAPWVFGGGTKLTVLGAAAGAGGDYKDDDDKGAAAHHHHHH
notes: also called NYA-2048 tag adduct
B2: NYA-2044 (scFv)
scFv: GEVQLVESGGGLVQPGGSLRLSCAASGFSIRSYDIHWVRLAPGKGLEWVATISYDGSQKYYADSVKGRFTISRDESKNTLYLQMNSLRAEDTAVYHCARGSSGHYEAFDIWGQGTLVTVSSGGGGSGGGGSGGGGSQSVLTQPPSVSAAPGQKVTISCSGSSSNIGNWYVSWYQQLPGTAPKLLIYDNNKRPSGIPDRFSGSKSGTSATLGITGLQTGDEADYYCGTWDSSLSAPWVFGGGTKVTVLGAAAGAGGDYKDDDDKGAAAHHHHHH
notes: also called NYA-2044 tag adduct
B3: NYA-2045 (scFv)
scFv: B1 scFv with Q2E, V12L, R17G, M35I, Q40L, N75E, S85N
notes: also called NYA-2045 tag adduct
B4: NYA-2047 (scFv)
scFv: B2 scFv with E2Q, L12V, G17R, I35M, L40Q, E75N, N85S
B5: NYA-2143 (scFv)
scFv: GEVQLVESGGGVVQPGRSLTPSCSASGFSIRSYDIHWVRLAPGKGLEWVATISYDGSQKYFADSVKGRFTIFRDESENMVYLQMSGLRVEDTAVYHCARGSSGHYEAFDIWGQGTMVTVSSGGGGSGGGGSGGGGSQSVLTQPPSVSAAPGQKVTISCSGSSSNIGNWYVSWYQRLPGTAPKLLIYDNNKRPSGIPDRFSGSKSGTSATLGITGLQTGDEADYYCGTWDSSLSAPWVFGGGTKVTVLGAAAGAGGDYKDDDDKGAAAHHHHHH
B6: NYA-2035 (scFv)
scFv: B5 scFv with Y169K, R175Q
B7: NYA-1163 (scFv)
scFv: B5 scFv with W168N, R175Q
B8: NYA-2023 (scFv)
scFv: B5 scFv with L40Q, R175Q
B9: NYA-1143 (scFv)
scFv: B5 scFv with R175Q
B10: NYA-1154 (scFv)
scFv: B5 scFv with I35M, L40Q, G103N, W168N, T227A

Biological target: T1, 1F
T1 construct: also called HLA-A2 / point-mutant NY-ESO peptide 1F complex on T2 cells
Test: flow cytometry on peptide-pulsed T2 cells, scFv 100 nM

| Binder | standardized gMFI |
| --- | --- |
| B1 | 0.51 |
| B2 | 0.68 |
| B3 | 0.53 |
| B4 | 0.48 |
| B5 | 2.72 |
| B6 | 0.6 |
| B7 | 0.53 |
| B8 | 0.72 |

Biological target: T2, 3A
T2 construct: also called HLA-A2 / point-mutant NY-ESO peptide 3A complex on T2 cells
Test: as above

| Binder | standardized gMFI |
| --- | --- |
| B1 | 4.2 |
| B2 | 10.9 |
| B3 | 7.46 |
| B4 | 6.09 |
| B9 | 10.2 |
| B5 | 10.3 |
| B10 | 8 |
| B6 | 5.81 |
| B8 | 4.92 |

Biological target: T3, 7F
T3 construct: also called HLA-A2 / point-mutant NY-ESO peptide 7F complex on T2 cells
Test: as above

| Binder | standardized gMFI |
| --- | --- |
| B2 | 3.62 |
| B3 | 1.99 |
| B10 | 6.08 |
| B6 | 5.83 |
| B8 | 4.72 |

Biological target: T4, 6L
T4 construct: also called HLA-A2 / point-mutant NY-ESO peptide 6L complex on T2 cells
Test: as above

| Binder | standardized gMFI |
| --- | --- |
| B1 | 6.14 |
| B2 | 13.4 |
| B3 | 8.8 |
| B4 | 7.07 |
| B9 | 12.9 |
| B5 | 12.9 |
| B10 | 9.36 |
| B6 | 8.95 |
| B8 | 7.51 |

Biological target: T5, 5A
T5 construct: also called HLA-A2 / point-mutant NY-ESO peptide 5A complex on T2 cells
Test: as above

| Binder | standardized gMFI |
| --- | --- |
| B1 | 0.67 |
| B9 | 3.15 |
| B7 | 0.62 |

Biological target: T6, 9A
T6 construct: also called HLA-A2 / point-mutant NY-ESO peptide 9A complex on T2 cells
Test: as above

| Binder | standardized gMFI |
| --- | --- |
| B1 | 7.75 |
| B2 | 15.6 |
| B3 | 9.98 |
| B4 | 9.54 |
| B9 | 15.1 |
| B5 | 14.5 |
| B10 | 11.2 |
| B6 | 11.5 |
| B7 | 4.01 |
| B8 | 10.8 |

Biological target: T7, 8A
T7 construct: also called HLA-A2 / point-mutant NY-ESO peptide 8A complex on T2 cells
Test: as above

| Binder | standardized gMFI |
| --- | --- |
| B1 | 4.11 |
| B2 | 10 |
| B3 | 7.35 |
| B4 | 6.61 |
| B9 | 8.74 |
| B5 | 9.69 |
| B10 | 11.9 |
| B6 | 6.41 |
| B7 | 6 |
| B8 | 5.4 |

Biological target: T8, 2M
T8 construct: also called HLA-A2 / point-mutant NY-ESO peptide 2M complex on T2 cells
Test: as above

| Binder | standardized gMFI |
| --- | --- |
| B1 | 5.36 |
| B2 | 13.5 |
| B3 | 8.8 |
| B4 | 7.34 |
| B9 | 11.9 |
| B5 | 13.2 |
| B10 | 9.49 |
| B6 | 8.8 |
| B8 | 6.74 |

Biological target: T9, 4A
T9 construct: also called HLA-A2 / point-mutant NY-ESO peptide 4A complex on T2 cells
Test: as above

| Binder | standardized gMFI |
| --- | --- |
| B1 | 0.63 |
| B2 | 3.21 |
| B4 | 0.86 |
| B5 | 7.19 |
| B10 | 6.63 |
| B7 | 0.57 |
| B8 | 2.48 |
